The results in this text go back to publication PMC3575853 (Nucleic Acids Research, 2013).

The target in data set [1] is RPA70 residues 181-616 (70ABC subunit of the human RPA DNA-binding core, RPA-DBC) (human, UniProt P27694 181-616). The experiment in a line: SEC-MALS.
The target of data set [2] is RPA-DBC (RPA70ABC/32D/14 DNA-binding core) (human, UniProt P27694;P15927;P35244 181-616;43-171;1-121). Kind of data set: SANS / gel filtration.
Chain of RPA-DBC (RPA70ABC/32D/14 DNA-binding core) (P27694 181-616, chain 1 of 2): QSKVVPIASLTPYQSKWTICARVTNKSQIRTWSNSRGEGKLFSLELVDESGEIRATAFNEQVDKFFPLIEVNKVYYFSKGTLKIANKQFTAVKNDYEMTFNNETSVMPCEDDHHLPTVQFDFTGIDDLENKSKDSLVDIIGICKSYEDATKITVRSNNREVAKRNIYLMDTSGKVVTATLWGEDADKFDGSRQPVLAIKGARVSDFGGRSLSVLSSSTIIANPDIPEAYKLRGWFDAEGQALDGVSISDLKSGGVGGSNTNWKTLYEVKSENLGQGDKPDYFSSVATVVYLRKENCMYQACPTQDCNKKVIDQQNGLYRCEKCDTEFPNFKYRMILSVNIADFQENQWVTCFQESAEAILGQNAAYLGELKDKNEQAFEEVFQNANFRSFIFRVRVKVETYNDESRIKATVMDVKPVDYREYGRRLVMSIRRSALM
Chain of RPA-DBC (RPA70ABC/32D/14 DNA-binding core) (P35244 whole entry, chain 3 of 2): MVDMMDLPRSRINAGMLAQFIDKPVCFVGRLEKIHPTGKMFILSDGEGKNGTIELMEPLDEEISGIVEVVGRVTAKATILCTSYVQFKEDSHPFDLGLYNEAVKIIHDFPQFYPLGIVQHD

Chain of RPA70 residues 181-616 (70ABC subunit of the human RPA DNA-binding core, RPA-DBC) (P27694 181-616): as the sequence (P27694 181-616, chain 1 of 2) above

B1: RPA32 residues 43-171 (32D subunit of the human RPA DNA-binding core, RPA-DBC) (domain or fragment)
chain: AQHIVPCTISQLLSATLVDEVFRIGNVEISQVTIVGIIRHAEKAPTNIVYKIDDMTAAPMDVRQWVDTDDTSSENTVVPPETYVKVAGHLRSFQNKKSLVAFKIMPLEDMNEFTTHILEVINAHMVLSK
Turning to B1, the binding result in data set [1] is “binds”.

Consider TTTTTTTTTTTTTTTTTTTTTTTTTTTTTT (ssDNA) [dT30], for which the binding result in data set [2] is “binds”.
